T1: gB-p17 (Human cytomegalovirus, strain AD169)
T1 chain: HRANETIYNTTLKYG

T2: biotinylated full-length peptide, residues 59–88 of gB (Human cytomegalovirus AD169, UniProt P06473)
T2 construct: also called full-length peptide (white column); source: synthetic peptide, bought: JPT Peptide Technologies
T2 chain: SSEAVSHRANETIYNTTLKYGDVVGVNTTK

T3: gB P_(064-083) (Human cytomegalovirus, strain AD169)
T3 construct: source: synthetic peptide
T3 chain: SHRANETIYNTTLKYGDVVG

T4: gB 15-mer library peptide, residues 69-83 (Human cytomegalovirus, strain AD169)
T4 construct: source: synthetic peptide, bought: JPT Peptide Technologies
T4 chain: ETIYNTTLKYGDVVG

B1: 3–25 IgG (antibody, V domains shown)
VH: QVQLVESGGGVVQPGRSLRLSCAASGFTFSNHGLHWVRQPPGKGLEWVAVVSKDGTNEHYADSVRGRFTISRDNSKNTLYLLMKSLRLEDTAVYYCAREGYCGDDRCYSGQPDYWGQGILVTVSS
VL: EIVLTQFPATLSLSPGERATLSCRASQSVGRYLAWYQQKPGQAPRLLIYDSSNRATGVPARFSGSGSGTDFTLSISSLEPEDFAVYFCQQRSHWPPLTFGGGTKVEIK
B2: 3–25 Fab (Fab, V domains shown)
VH: B1 VH
VL: B1 VL

Assays:
gB on HCMV whole virion = gB on HCMV whole virion (Human cytomegalovirus, virion strain …, UniProt P06473); assay: ELISA; inactivated virion (2 μg/mL) coated; 2-fold serially diluted IgG, Fab or (Fab)2, 90 min RT; HRP goat anti-human (Fab)2; conditions: one partner purified
gB-p17 [1] = target: T1, gB-p17; assay: ELISA; conditions: both partners purified
[2] = target: T2, biotinylated full-length peptide, …; assay: ELISA; conditions: both partners purified
gB P_(064-083) = target: T3, gB P_(064-083); assay: ELISA; conditions: both partners purified
[3] = target: T4, gB 15-mer library peptide, residues …; assay: ELISA; conditions: both partners purified
gB-p17 [4] = target: T1, gB-p17; assay: crystal structure; conditions: both partners purified

Sequence of gB on HCMV whole virion (P06473 32-906): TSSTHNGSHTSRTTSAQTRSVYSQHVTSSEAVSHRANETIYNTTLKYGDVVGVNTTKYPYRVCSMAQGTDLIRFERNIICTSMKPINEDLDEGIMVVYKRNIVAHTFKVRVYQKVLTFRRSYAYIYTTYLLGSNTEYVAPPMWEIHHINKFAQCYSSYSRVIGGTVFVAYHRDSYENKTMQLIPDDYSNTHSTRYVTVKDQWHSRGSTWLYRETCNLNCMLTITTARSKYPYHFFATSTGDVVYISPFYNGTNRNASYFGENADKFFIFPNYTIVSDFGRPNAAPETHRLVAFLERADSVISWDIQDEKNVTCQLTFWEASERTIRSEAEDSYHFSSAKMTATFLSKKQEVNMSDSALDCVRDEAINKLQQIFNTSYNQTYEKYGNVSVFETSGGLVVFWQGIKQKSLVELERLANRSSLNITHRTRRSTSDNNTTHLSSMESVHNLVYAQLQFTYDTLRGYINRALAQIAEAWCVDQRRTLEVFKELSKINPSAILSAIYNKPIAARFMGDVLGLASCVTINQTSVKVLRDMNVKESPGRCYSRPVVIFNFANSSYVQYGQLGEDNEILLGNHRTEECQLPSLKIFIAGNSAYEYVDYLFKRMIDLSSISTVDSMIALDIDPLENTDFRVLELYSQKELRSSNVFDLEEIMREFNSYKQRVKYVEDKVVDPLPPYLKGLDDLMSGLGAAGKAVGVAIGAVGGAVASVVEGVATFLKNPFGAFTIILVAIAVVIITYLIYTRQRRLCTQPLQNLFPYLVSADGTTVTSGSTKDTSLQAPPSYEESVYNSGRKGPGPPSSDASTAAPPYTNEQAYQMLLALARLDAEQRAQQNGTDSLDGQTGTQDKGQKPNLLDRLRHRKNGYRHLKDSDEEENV

Binder | EC50 (gB on HCMV whole virion) | binding result (gB-p17 [1]) | binding result [2] | binding result (gB P_(064-083)) | binding result [3] | binding result (gB-p17 [4])
B1 | 18.9 nM | binds | binds | binds | binds | 
B2 | 66.9 nM |  |  |  |  | binds
